System: P-selectin antibody
Assay: SPR antibody binding to oriented versus randomly immobilized P-selectin
Conditions: 20 μg/mL P-selectin antibody, 20 μL/min; compared to randomly immobilized P-selectin, comparable amounts immobilized
Experimental: Enhanced controllability of surfaces by covalent immobilization: Previously, we have shown the surfaces with covalently immobilized P-selectin present enhanced functional stability by approximately 10 times, as compared to those with physisorbed P-selectin. The surface stability was assessed using cell-mimicking microspheres as well as live neutrophils. We also developed immobilization chemistries (as shown FIG. 5) on gold coated, […] PEGylated surfaces to employ the flow-based SPR technique that quantitatively analyze the surface functions, offering: 1) easy surface functionalization using thiol chemistries due to the presence of a gold layer and 2) quantitative and real time monitoring of binding events without any modification of analytes. Thus, the SPR technique is useful particularly for determining controllability of density and orientation of P-selectin. The chemistries described in FIG. 5 were developed to achieve non-fouling surfaces and to provide reactive sites for subsequent P-selectin immobilization using oligo(ethylene glycol)-alkanethiols (Prochimia, Poland) on gold coated SPR chips. Briefly, the gold chip surface was cleaned before the subsequent formation of mixed self assembled monolayers (SAMs) by washing with absolute ethanol and drying by nitrogen blowing. […]

antibody binding response: significantly greater binding response
B1: oriented P-selectin: P-selectin biotinylated at its single cysteine, immobilized through biotin-streptavidin binding on OEG-biotin SAM (protein, UniProt P16109 42-830, looked up)
P-selectin: WTYHYSTKAYSWNISRKYCQNRYTDLVAIQNKNEIDYLNKVLPYYSSYYWIGIRKNNKTWTWVGTKKALTNEAENWADNEPNNKRNNEDCVEIYIKSPSAPGKWNDEHCLKKKHALCYTASCQDMSCSKQGECLETIGNYTCSCYPGFYGPECEYVRECGELELPQHVLMNCSHPLGNFSFNSQCSFHCTDGYQVNGPSKLECLASGIWTNKPPQCLAAQCPPLKIPERGNMTCLHSAKAFQHQSSCSFSCEEGFALVGPEVVQCTASGVWTAPAPVCKAVQCQHLEAPSEGTMDCVHPLTAFAYGSSCKFECQPGYRVRGLDMLRCIDSGHWSAPLPTCEAISCEPLESPVHGSMDCSPSLRAFQYDTNCSFRCAEGFMLRGADIVRCDNLGQWTAPAPVCQALQCQDLPVPNEARVNCSHPFGAFRYQSVCSFTCNEGLLLVGASVLQCLATGNWNSVPPECQAIPCTPLLSPQNGTMTCVQPLGSSSYKSTCQFICDEGYSLSGPERLDCTRSGRWTDSPPMCEAIKCPELFAPEQGSLDCSDTRGEFNVGSTCHFSCDNGFKLEGPNNVECTTSGRWSATPPTCKGIASLPTPGVQCPALTTPGQGTMYCRHHPGTFGFNTTCYFGCNAGFTLIGDSTLSCRPSGQWTAVTPACRAVKCSELHVNKPIAMNCSNLWGNFSYGSICSFHCLEGQLLNGSAQTACQENGHWSTTVPTCQAGPLTIQEALTYFGGAVASTIGLIMGGTLLALLRKRFRQKDDGKCPLNPHSHLGTYGVFTNAAFDPSP
modifications: biotinylated at cysteine

Source: patent US9964541B2, “Method and devices for capturing circulating tumor” (THE BOARD OF TRUSTEES OF THE UNIVERSITY OF ILLINOIS, priority 2009, dated 2018)
